Measurements from paper PMC8699718, “A structurally conserved site in AUP1 binds the E2 enzyme UBE2G2 and is essential for ER-associated degradation” (PLoS Biology, 2021).

Tests used:
UBE2G2 [1] = assay: CHX chase: UBE2G2 turnover in HT1080 AUP1 KO cells; type: cell-based, human; settings: GFP fusion transfected with MYC-UBE2G2, HT1080 AUP1 KO, compared with GFP-SCR
Method: Fig 7 G2BR^AUP1 protects UBE2G2 from degradation. (A) Indicated cells were assessed for steady state levels and turnover of endogenous UBE2G2 by CHX chase. (B) Transcript levels of endogenous UBE2G2 in AUP1 KO cells compared to HT1080 as determined by qPCR. Mean and standard deviation from three independent experiments is shown. […] (D) AUP1 KO cells were transfected with plasmids encoding MYC-UBE2G2 and GFP fusions of either a scrambled G2BR (SCR), G2BR^gp78, or G2BR^AUP1, and the turnover of UBE2G2 was assessed. (E) Relative abundance of gp78 (left panel) and AUP1 (right panel) in HT1080 cells was determined by resolving indicated amounts (in pmoles) of purified GST-gp78 (aa 429 to 611) or GST-AUP1 (aa 61 to 410) fusions alongside approximately 1 × 10^4 cellular equivalents of cell lysate and immunoblotting with gp78 or AUP1 antibodies. For each antibody, the amount of immunoreactivity in the lysate was compared to a defined quantity of a GST fusion protein of gp78 or AUP1 spanning the epitope recognized by the probing antibody. […] The data underlying this figure can be found in S1 and S8 Data. aa, amino acid; AUP1, ancient ubiquitous protein 1; CHX, cycloheximide; G2BR, UBE2G2 Binding Region; KO, knockout; qPCR, quantitative polymerase chain reaction; WT, wild type. […]

UBE2G2:G2BR^AUP1 complex = target: T1, UBE2G2:G2BR^AUP1 complex (UniProt P60604 1-165, ^15N-labeled); assay: NMR titration; ^1H-^15N HSQC of ^15N-labeled UBE2G2 at 150 μM, alone or bound to G2BR peptide, titrated with gp78 RING 0 to 450 μM; chemical shift perturbations fitted; 50 mM Tris-Cl pH 7.0, 0.5 mM TCEP, 100 μM zinc sulfate; settings: both partners purified
T1 construct: UBE2G2, as m15; AUP1 G2BR, residues 378-404, as m16; Complex formed before titration with the gp78 RING; also called G2BR^AUP1:UBE2G2
T1 sequence 1: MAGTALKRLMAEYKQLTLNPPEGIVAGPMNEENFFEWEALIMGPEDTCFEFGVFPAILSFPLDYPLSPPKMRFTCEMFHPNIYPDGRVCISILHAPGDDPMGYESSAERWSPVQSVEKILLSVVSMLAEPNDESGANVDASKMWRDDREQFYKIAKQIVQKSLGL
T1 sequence 2: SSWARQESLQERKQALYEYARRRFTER

UBE2G2:G2BR^gp78 complex = target: T2, UBE2G2:G2BR^gp78 complex (UniProt P60604 1-165, ^15N-labeled); assay: as above; settings: both partners purified
T2 construct: UBE2G2, as m15; N-terminal Trp residue added for peptide quantification, as m17; gp78 G2BR, residues 574-600, as m17; Complex formed before titration with the gp78 RING; also called G2BR^gp78:UBE2G2
T2 sequence 1: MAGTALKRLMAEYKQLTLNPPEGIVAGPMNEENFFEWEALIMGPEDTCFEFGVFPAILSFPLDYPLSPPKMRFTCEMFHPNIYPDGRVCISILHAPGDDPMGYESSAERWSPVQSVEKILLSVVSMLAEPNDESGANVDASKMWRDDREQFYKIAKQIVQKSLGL
T2 sequence 2: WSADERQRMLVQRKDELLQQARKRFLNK

purified UBE2G2 [2] = target: T3, purified UBE2G2 (UniProt P60604 1-165, ^15N-labeled for NMR); assay: as above; settings: both partners purified
T3 construct: UBE2G2, purified recombinant protein used for ITC, FP, MST and NMR; also called apo-UBE2G2; ^15N-labeled UBE2G2
T3 sequence (looked up): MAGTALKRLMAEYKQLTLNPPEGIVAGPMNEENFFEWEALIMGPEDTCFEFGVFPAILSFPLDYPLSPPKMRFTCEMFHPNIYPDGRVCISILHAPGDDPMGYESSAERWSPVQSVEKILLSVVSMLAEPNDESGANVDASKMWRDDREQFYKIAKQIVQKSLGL

UBE2G2 [3] = target: T4, UBE2G2 (Homo sapiens, UniProt P60604); assay: GST pulldown of in vitro translated 35S-UBE2G2; type: binding; settings: GST-AUP1 aa 292 to 410 on glutathione beads, ~3 pmol GST fusion, ~0.2 pmol E2, overnight 4°C, pH 7.4
T4 construct: made in house
T4 sequence (P60604 1-165): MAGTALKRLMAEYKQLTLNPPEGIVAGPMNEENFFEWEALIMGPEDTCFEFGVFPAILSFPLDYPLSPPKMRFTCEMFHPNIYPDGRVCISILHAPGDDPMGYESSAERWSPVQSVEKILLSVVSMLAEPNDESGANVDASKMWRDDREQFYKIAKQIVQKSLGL
Method: (§1) Fig 3 The AUP1–UBE2G2 interaction is required for ERAD. (A) Equimolar amounts of GST-AUP1 (aa 292 to 410) or GST were immobilized on glutathione beads and binding to the indicated in vitro translated ^35S-labeled E2s was assessed. Left panel is 5% of input used for binding. E2s are referred to by their unique alpha-numeric designation (e.g., UBE2G1 and UBE2J1). (B) HT1080 or UBE2G2 KO cells were transfected with INSIG-1-MYC and degradation assessed by CHX chase. […] (D) Cells were transfected with NHK-MYC and HA-ubiquitin and ubiquitination of NHK assessed following proteasome inhibition and IP (right panel). Left panel is 10% of total cell lysate used for IP, indicating no discernable change in total ubiquitination. (E) Levels of endogenous HRD1 were monitored by CHX chase in the indicated cell types. (F) Ubiquitination of endogenous HRD1 was assessed following IP with HRD1 antiserum. Arrow in upper panel indicates migration of unmodified HRD1. Control immunoprecipitates using rabbit serum are shown for comparison. The data underlying this figure can be found in S1 Data. aa, amino acid; AUP1, ancient ubiquitous protein 1; CHX, cycloheximide; ERAD, endoplasmic reticulum–associated degradation; IP, immunoprecipitation; KO, knockout; WT, wild type.
Fig 6 Disruption of UBE2G2:G2BR^AUP1 interaction abrogates AUP1 function in cells. (A) GST or indicated GST-AUP1 fusions (aa 292 to 410, expression shown in Coomassie-stained gel) were immobilized on glutathione beads and binding to ^35S-UBE2G2 was assessed as in Fig 3A. Mutations include 2A (R382A/Q383A), 2E (R382E/Q383E), and 5E (R382E/Q383E/K390E/R398E/R400E). (B) AUP1 KO cells were transfected with NHK-HA and forms of full-length AUP1-FLAG with the indicated point mutations from (A) and NHK degradation assessed by CHX chase. (C) Binding assay performed as in (A) with AUP1 mutants predicted to disrupt hydrophobic interactions with UBE2G2. (D) Cellular assay performed as in (B) with AUP1-FLAG mutants that disrupt interactions with UBE2G2 in vitro in (C). The data underlying this figure can be found in S1 Data. aa, amino acid; AUP1, ancient ubiquitous protein 1; CHX, cycloheximide; G2BR, UBE2G2 Binding Region; KO, knockout; WT, wild type.
In vitro translated ^35S methionine-labeled E2s were generated using the E. coli T7-S30 Extract System (Promega) and excess ^35S methionine was removed by desalting twice with Zeba Spin Desalting Columns (Thermo Scientific). GST fusion proteins were quantified by Coomassie blue staining. Moreover, 0.1 μg of GST fusion protein (approximately 3 pmol) was prebound to GS 4B (GE Healthcare) and then incubated with approximately 10^5 cpm of ^35S methionine-labeled E2 (approximately 0.2 pmol) in 200 μl Binding Buffer (25 mM Tris-HCl, pH 7.4, 50 mM NaCl, 5 mM DTT, 0.5% IGEPAL CA-630) overnight at 4°C. Beads were extensively washed in Binding Buffer, resolved on Bis/Tris polyacrylamide gels under reducing conditions, dried and visualized on a Typhoon FLA 7000 (GE Healthcare). Binding was quantified using ImageQuant Software.

UBE2D2/UBCH5B = assay: GST pulldown of in vitro translated 35S-UBE2D2; type: binding; settings: GST-AUP1 aa 292 to 410, overnight 4°C, pH 7.4
Method: as §1, with “The data underlying this figure can be found in S1 Data. aa, amino acid; AUP1, ancient ubiquitous protein 1; CHX, cycloheximide; ERAD, endoplasmic reticulum–associated degradation; IP, immunoprecipitation; KO, knockout; WT, wild type.” left out
(§2) In vitro translated ^35S methionine-labeled E2s were generated using the E. coli T7-S30 Extract System (Promega) and excess ^35S methionine was removed by desalting twice with Zeba Spin Desalting Columns (Thermo Scientific). GST fusion proteins were quantified by Coomassie blue staining. […] Binding was quantified using ImageQuant Software.

UBE2G1 = assay: GST pulldown of in vitro translated 35S-UBE2G1; type: binding; settings: GST-AUP1 aa 292 to 410, overnight 4°C, pH 7.4
Method: as §1, with “The data underlying this figure can be found in S1 Data. aa, amino acid; AUP1, ancient ubiquitous protein 1; CHX, cycloheximide; ERAD, endoplasmic reticulum–associated degradation; IP, immunoprecipitation; KO, knockout; WT, wild type.” left out
as §2

UBE2D3/UBCH5C = assay: GST pulldown of in vitro translated 35S-UBE2D3; type: binding; settings: GST-AUP1 aa 292 to 410, overnight 4°C, pH 7.4
Method: as §1, with “The data underlying this figure can be found in S1 Data. aa, amino acid; AUP1, ancient ubiquitous protein 1; CHX, cycloheximide; ERAD, endoplasmic reticulum–associated degradation; IP, immunoprecipitation; KO, knockout; WT, wild type.” left out
as §2

UBE2J1/UBC6e = assay: GST pulldown of in vitro translated 35S-UBE2J1; type: binding; settings: GST-AUP1 aa 292 to 410, overnight 4°C, pH 7.4
Method: as §1, with “The data underlying this figure can be found in S1 Data. aa, amino acid; AUP1, ancient ubiquitous protein 1; CHX, cycloheximide; ERAD, endoplasmic reticulum–associated degradation; IP, immunoprecipitation; KO, knockout; WT, wild type.” left out
as §2

purified UBE2G2 [4] = target: T3, purified UBE2G2; assay: ITC; 30 μM G2BR peptide injected into 3 μM UBE2G2 in the cell, PBS pH 7.4, 25°C, one set of sites model; settings: both partners purified

“GFP-G2BR^gp78: GFP fusion of gp78 aa 574 to 600” was tested, and the “UBE2G2 degradation and steady state level” value (UBE2G2 [1]) was “protected UBE2G2 from degradation and increased the steady state level of this E2”.

B1: gp78 RING domain (domain or fragment, UniProt Q9UKV5 313-393, looked up)
chain: KNYLRVVGNMEARFAVATPEELAVNNDDCAICWDSMQAARKLPCGHLFHNSCLRSWLEQDTSCPTCRMSLNIADNNRVREE
notes: gp78 (aka AMFR or RNF45), RING domain; the limits 313-393 are those of the only gp78-RING construct that the methods name; also called gp78-RING construct (aa 313 to 393)
B1 was tested, and the Kd (UBE2G2:G2BR^AUP1 complex) was 22.5 µM, the Kd (UBE2G2:G2BR^gp78 complex) was 20.3 µM and the Kd (purified UBE2G2 [2]) was 207 ± 6.4 µM.

B2: GST fusion of AUP1: GST fusion of AUP1 that includes the G2BR (protein)
chain: SPDVQLATLAQRVKEVLPHVPLGVIQRDLAKTGCVDLTITNLLEGAVAFMPEDITKGTQSLPTASASKFPSSGPVTPQPTALTFAKSSWARQESLQERKQALYEYARRRFTERRAQEAD
modifications: left off: GST, end not stated, kept
notes: GST fusion of AUP1 that includes the G2BR
With B2 the “binding to UBE2G2” value (UBE2G2 [3]) was “bound UBE2G2”, the “binding to UBE2D2” value (UBE2D2/UBCH5B) was “no discernable binding” and the “binding to UBE2G1” value (UBE2G1) was “not UBE2G1”. The “binding to UBE2D3” value (UBE2D3/UBCH5C) was “no discernable binding” and the “binding to UBE2J1” value (UBE2J1/UBC6e) was “failed to show detectable binding”.

B3: G2BR^AUP1 peptide (aa 378 to 404) (peptide)
peptide: SSWARQESLQERKQALYEYARRRFTER
notes: also called AUP1 G2BR; source: synthetic peptide (GenScript)
B3 gave a Kd (purified UBE2G2 [4]) of 0.0031 µM.
